Results taken from the DeepSol protein solubility set.

Assay: soluble on expression in E. coli; label from the status in PepcDB or PDB records

| Sequence | soluble on expression in E. coli |
| --- | --- |
| MYKEDTIAAISTPHGAGGVGIIRISGDKAFEIAERIFRGKKDFKLIRSHTINYGKIVNPENGAVLDEVLLSKMEKPKTFTREDVVEINCHGGMVVLKNILELCIKEGARLAEPGEFTKRAFLNGRIDLSQAEAVIDLINSKTNESSKAAISQLEGKLSRKIKDARSKLIELLAHIEVTVDYPEHDIEEITGNMVYEEIGKIKEKLCDIVKSFERGRIIREGIDAVIIGKPNVGKSSLLNELSGKSKAIVTDIPGTTRDIIEEYININGIPLRIIDTAGIRETEDVVEKIGVEKTHRAIDEADLVIMMIDAKRGMDEDDNRILTMLGDKKLIILINKIDLVDEKQINEIESLLKGRKCIRTSVKEGTGISELENAITELFVQGEVSVNEEILLTNIRHKNLIDMAISSIEKAMESIDGSMPLDLVSIDITDAADYLGQITGESVSEDVMHEIFSKFCLGK | not soluble |
| MYKKRQRGEREREIKVEFAMHISIKTLEGKRIKLEVEDSSNTIDLKIHGEPTRELVVDLSPTPDTGAIMMIFIKTLTGRTNTYEVKGSDTIRELKAKHEEKEGIPVEQQRLIFQGRVLEDSKAISDYNIKHESTLHITLHQCGC | soluble |
| MYNDELIESSKIKWQLFLKGDDDAYAWLYSRYVQQLYQYGCRFTTDTEMVKDCVQDVFVNVYRQKDRYSSPPDNVKIYLMSSLRNSIFNVFNKGNLHDTYISNINYEFDLSVEEKLIETEDETSQKHTVAHLLNTLSPRQREIIYYRFFEGLDYSAICELMGLNYQSAYNLLQRSLSRLREMYGILPFFFLF | not soluble |
| MYQASCLFYFMTPVFFLLSTYPRNLLIGDSSTAFTKELIAKMNEVTNSAESTSSKRPGRPRKDGHDEKIIDATLRLIDSNRPVTVNAVVKESGVSRAAVYRRWPGLVDLVAEALDAGRAPVEIDTSGDIKETLIDGLFTNQAKTTGVSYPRQRFRKRLELVMSDQELQLAAAALEHHHHHH | not soluble |
| MYQYDEYDQALVSERVAQFRDQIARRLDGELSEEEFLPLRLQNGLYLQKHAYMLRVAIPYGTLSAPQLRALAHVARHYDRGYGHFTTRQNIQFNWIELEQVGDILEHLAGAQMHAIQTSGNCVRNITTEAFAGVAADEWTDPRPLAEILRQWSTVNPEFLFLPRKFKIALSSAVEDRAAVQMHDIGLYLYRHPDAGELRLRVLVGGGLGRTPMLGQVIRDDLPWQHLLSYVEAILRVYNRYGRRDNKYKARIKILVKALGIEAFAREVEEEWQHLRDGPAQLTAEECQRVAERFVLPRYLPPADGELAYGSARAADPAFARWASRNVQAHKVPGYASVVLSTKPGASAPPGDVTAEQMERVADWAERYGFGEIRVAHEQNLVLPDVRLENLHALWREACAAGLGTPNQGLLSDIIACPGGDYCALANAKSIPIAQGIQQRFEDLDHLHDIGELSLNISGCMNACGHHHIGNIGILGVDKSGSEWYQVTLGGAQGKDSALGKVIGPSFSAAEVPAVIERIVETFTDLRVGPERFIDTFNRVGLEPFKARVYARMEEPA | not soluble |
| MYSRADRLLRQFSLKLNTDSIVFDENRLCSFIIDNRYRILLTSTNSEYIMIYGFCGKPPDNNNLAFEFLNANLWFAENNGPHLCYDNNSQSLLLALNFSLNESSVEKLECEIEVVIRSMENLYHILQDKGITLDTDYTHHHHHH | soluble |
| MYSTLEQLTKHPVFYHFAEISKIPRGSGNEKEISDYLVGFAKERNLEVIQDEALNVIIKKEATTGYENVPAIIIQGHMDMVCEKNQATVHDFEKDPIELRIIGDMLYANQTTLGADNGIAVAYALALLDSKEIPHPALEVVITTEEETTMGGAFAIDPNHFEGKIFINIDSEEDHKLLVSSAGGAKAVETIPVIWDETPANMDAYRLYVGGLKGGHSGMEIDKQRGNANKVLGRVLRDLSAHTEFNISEVHGGLKTNAIPRESVATLLIRTEDVGQVEEKLESWTRVLQEEMRAVDPDVHVTLTKLDETVEKVFAQETQKQLISSLFLIPNGIQSMSMDIKGLVESSTNLGVIETLQDEIKLRNEVRSSVSSLKQHVAEEIKYIAELVGATFEIESEYPEWPYNPNSQIRNLFEKVHQEKYNKEIEIFAVHAGIECSAFVQKMPELDAISFGPDIFNVHTPDEHISISSVVNNWGFFIDVMKGTKELAK | not soluble |
| MYTQTLYELSQEAERLLQLSRQQLQLLEKMPLSVPGDDAPQLALPWSQPNIAERHAMLNNELRKISRLEMVLAIVGTMKAGKSTTINAIVGTEVLPNRNRPMTALPTLIRHTPGQKEPVLHFSHVAPIDCLIQKLQQRLRDCDIKHLTDVLEIDKDMRALMQRIENGVAFEKYYLGAQPIFHCLKSLNDLVRLAKALDVDFPFSAYAAIEHIPVIEVEFVHLAGLESYPGQLTLLDTPGPNEAGQPHLQKMLNQQLARASAVLAVLDYTQLKSISDEEVREAILAVGQSVPLYVLVNKFDQQDRNSDDADQVRALISGTLMKGCITPQQIFPVSSMWGYLANRARHELANNGKLPPPEQQRWVEDFAHAALGRRWRHADLADLEHIRHAADQLWEDSLFAQPIQMLLHAAYANASLYALRSAAHKLLNYAQQAREYLDFRAHGLNVACEQLRQNIHQIEESLQLLQLNQAQVSGEIKHEIELALTSANHFLRQQQDALKVQLAALFQDDSEPLSEIRTRCETLLQTAQNTISRDFTLRFAELESTLCRVLTDVIRPIEQQVKMELSESGFRPGFHFPVFHGVVPHFNTRQLFSEVISRQEATDEQSTRLGVVRETFSRWLNQPDWGRGNEKSPTETVDYSVLQRALSAEVDLYCQQMAKVLAEQVDESVTAGMNTFFAEFASCLTELQTRLRESLALRQQNESVVRLMQQQLQQTVMTHGWIYTDAQLLRDDIQTLFTAERY | not soluble |
| NDAKKYIVSVLILLVAGMFGGCIKEDYSDCPRPFRLTVRAWDADMQDITETGAVQRVVIFVFDETGRRIDRLMMDAAQVAARKPIPLEYDGPTTVSFVAWANPDDHMLEETANVQNVKDLFFRLSSTDGIAQSPGDLFSGVLTCPIEYGSIEQGTDQTVDIYRRTAQVHIIIRGYQEWLEANGPRQLPDYADILLGETPDTYTGLAELIGNAVQYRPDGQIQNGDFISPIFRVYPTLDTTPLHLKLYAYGQELLNISTGSDGVPFIPVIGKMLNIYIDLRGANLNVLVSVTPWDVVQQYAE | not soluble |
| NDDIIVNWVNRTLSEAGKSTSIQSFKDKTISSSLAVVDLIDAIQPGCINYDLVKSGNLTEDDKHNNAKYAVSMARRIGARVYALPEDLVEVKPKMVMTVFACLMGRGMKRV | soluble |
| NETEVAKTSQDTTTASSSSEQNQSSNKTQTSAEVQTNAAAYWDGDYYVKDDGSKAQSEWIFDNYYKAWFYINSDGRYSQNEWHGNYYLKSGGYMAQNEWIYDSNYKSWFYLKSDGAYAHQEWQLIGNKWYYFKKWGYMAKSQWQGSYFLNGQGAMIQNEWLYDPAYSAYFYLKSDGTYANQEWQKVGGKWYYFKKWGYMARNEWQGNYYLTGSGAMATDEVIMDGARYIFAASGELKEKKDLNVGWVHRDGKRYFFNNREEQVGTEHAKKIIDISEHNGRINDWKKVIDENEVDGVIVRLGYSGKEDKELAHNIKELNRLGIPYGVYLYTYAENETDAENDAKQTIELIKKYNMNLSYPIYYDVQNWEYVNKSKRAPSDTDTWVKIINKYMDTMKQAGYQNVYVYSYRSLLQTRLKHPDILKHVNWVAAYTNALEWENPYYSGEKGWQYTSSEYMKGIQGRVDVSVWY | soluble |
| NFIYAHLNRIIRRDDLNMIYIAGPGHGGPALVANTYLEGTYSEHYPDISQDIQGMKHLFRQFSFPGGIGSHATPEIPGSIHEGGELGYALSHAFGAVFDNPDLIAACVVGDGEAETGPLATAWHSNKFLNPVHDGAVLPILHLNGYKIANPTILARISREELDQLFQGYGYQPYIVEGEDPLTMHQLMA | not soluble |
| NGESYNFALNSGYTKLSDNAEVKIAVDKIADLVSNMTVHLMENTEKGDIRIRDELSRKIDINPYSLMTRKTWIYNIVSNLLLYGDGNAIVLPEIKNGLISELKPLDPSLVDFDVRDDSYKIHYKNKTYNPDEVVHFAINPDSEYPFIGTGYRVALKSLVDNLNQATATKKAFMSSKFMPNLIVKVDANAAELSSEKGKNKIEDMYLQRTEEGKPWIIPADLIEIEQVKPLSLNDIAINEAVNIDKKTVAGLLGVPAFFVGVGEFDKNEFNNFINTRIMSIAMIISQTLTRDLLISPTRFFKLNPRSLYSYDITELVAAGGQMVDRIAMDRNELRDWIG | not soluble |
| NIVLTQSPKSMSVSVGERVTLSCKASENVDTYVFWFQQKPDQSPKLLLYGPSNRYTGVPDRFTGSGSTTDFTLTISSVQAEDLADYHCGQSYSYPYTFGGGTKLEIKRADAAPTVSIFPPSSEQLTSGGASVVCFLNNFYPKDINVKWKIDGSERQNGVLNSWTDQDSKDSTYSMSSTLTLTKDEYERHNSYTCEATHKTSTSPIVKSFNRNEC | soluble |
| NKMAMIDLAKLFLASKITAIEFSERICVERRRLYGVKDLSPNILNCGEELFMAAERFEPDADRANYEIDDNGLKVEVRSILEKFKLHHHHH | soluble |
| NKNAFLIVRGNLTYAHSEYLKYEDNTYDKEWWKYKIGYSPNQKWGYIAEGLFIDDAEVANSPVQFGDYKAGDIKYRDMNGDGVINSLDQVPIGHPTSPEINYGFGSTFSYKGFDINFQFHGSAQSSFWIDYDKMSPFFKDSKMSQKTNNQLVKFIANSYWSESNRNRYATWPRLSTTSVANNKELSTWFMRDGSFLRLKLVELGYTVPQKIVSKWGMSNLRLYMSSTNLFVLSKFKDWDVELAGNGLNYPLQRVFNIGVNVSF | not soluble |
| NKPSLLLYIHGFNSSPLSHKAQVMAEYCKVHRPDIKVIVPRLPSYPSQAAEFLVQLVEEYKDTHQIGLVGSSLGGYLSTWLNHQYGFKAALVNPAVKPYELLADYLGKQVNPYTQEEYFLEEKHMEELLALQVETLHSVDDLWLLQQEGDEVLDYRQAVDKYLACKQTIEKGGDHSFVNFERYPEQIIQFLN | not soluble |
| NNEIMPGKMKVKATKGEGDGGITSEGNALYNNEGGRAFMYAYVTTKPGMKYVKWEHDSGVVTVELEPPCRFVIDTPTGPQIKYLYFVKNLNNLRRGAVLGYIGATVRLQ | soluble |
| NPGENPKAQKALKQLFDGAQKDDIHLYKISGYRSYPTQVKLYNNYVKRDGKKAADKYSARPGYSEHQTGLTFDVGGVDSDKNLYASFGKTEEGRWIAKNAHNYGFIIRYPKNKESITGYQYEPWHLRYLGKKKATKVYKSGETLEEFVGLK | not soluble |
| NQVLSGVSFQLMPGEVHALMGENGAGKSTLMNILTGLHKADKGQISINGNETYFSNPKEAEQHGIAFIHQELNIWPEMTVLENLFIGKEISSKLGVLQTRKMKALAKEQFDKLSVSLSLDQEAGECSVGQQQMIEIAKALMTNAEVIIMDEPTAALTEREISKLFEVITALKKNGVSIVYISHRMEEIFAICDRITIMRDGKTVDTTNISETDFDEVVKKMVGRELTERYPKRTPSLGDKVFEVKNASVKGSFEDVSFYVRSGEIVGVSGLMGAGRTEMMRALFGVDRLDTGEIWIAGKKTAIKNPQEAVKKGLGFITENRKDEGLLLDTSIRENIALPNLSSFSPKGLIDHKREAEFVDLLIKRLTIKTASPETHARHLSGGNQQKVVIAKWIGIGPKVLILDEPTRGVDVGAKREIYTLMNELTERGVAIIMVSSELPEILGMSDRIIVVHEGRISGEIHAREATQERIMTLATGGR | not soluble |
| NRWGSPWAVKPEDKAKYDAIFDSLSPVNGFLSGDKVKPVLLNSKLPVDILGRVWELSDIDHDGMLDRDEFAVAMFLVYCALEKEPVPMSLPPALVPPSKRKTWLEI | soluble |
